± gives the standard error. Fewer inactive variants are shown than the library holds.
B1: glmS ribozyme (parent)
chain: AUAAAAGCGCCAGAACUACAGAAAUGUAGUUGACGAGGAGGAGGUUUAUCGAAUUUUCGGCGGAUGCCUCCAAA

Variants of: B1
Experiment: self-cleavage kobs at 2500 uM GlcN6P; higher = faster cleavage; RNA array
Details: with glucosamine-6-phosphate
In short: (§1)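 Over ~14 h at 37 °C, tiles were imaged as glucosamine-6-phosphate (40 μM to 10 mM) in HEPES/KCl/Mg(OAc)2 buffer flowed across sequenced MiSeq chips. The chips carried barcoded ribozyme variants transcribed in situ by E. coli RNA polymerase and tracked with a hybridised Cy3 probe. After normalisation to baseline and to non-cleaving reference variants, one- or two-exponential decay fits of per-tile medians gave kobs. kcat and KM followed from weighted Michaelis–Menten fits across concentrations.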

First: AUAAAAGCGCCAGAACUACAGAAAUGUAGUUGACGAGGAGGAGGAUGAUCGAAGUCUCGGCGGAUGCCUCCAAA [U45A U47G U54G U56C]
Second: AUAAAAGCGCUAGGACUACAGAAAUGUAGUUGACGAGGAGGAAGUUUAUCGAAUUUUCGGCGGAUGCCUCCAAA [C11U A14G G43A]
The “self-cleavage kobs at 2500 uM GlcN6P” value of the first is higher: 0.00285 ± 0.00062 s⁻¹ for the first, less than 1e-05 s⁻¹ for the second.

Compared with AUAAAAGCGCCAGAAGUACAGAAAUGUAGUUGACGAGGAGGAGGUUUAUCGAAUUUUCGGCGGAAGCCUCUAAA [C16G U65A C71U], AUAAAAGCGCCAGAACUACAGAAAUGUAGUUGACGAGGAGGUGGGUUAUCGACUUUUCGGCGGAUGCCUCCAAA [A42U U45G A53C] is 3.1-fold lower in “self-cleavage kobs at 2500 uM GlcN6P” value: 0.000341 ± 8.1e-05 s⁻¹ for the first, 0.000111 ± 2.6e-05 s⁻¹ for the second.

Going from AUAAAAGCGCCAGACGUACAGAAAUGUAGUUGACGAGGCGGAGGUGUAUCGAAUUCUCGGCGGAUGCCUCCAAA [A15C C16G A39C U46G U56C] to AUAAAAGCGCCACAACUACAGAAAUGUAUUUGACGAGGAGGAGGUUUAUAGAAUUCUCGGCCGAUGCCACCAAA [G13C G29U C50A U56C G62C U69A], the “self-cleavage kobs at 2500 uM GlcN6P” value rises from less than 1e-05 s⁻¹ to 0.000141 ± 5.2e-05 s⁻¹.

Compared with AUAAAAGCGCCAGAACUACAGAAAUGUAGUUGGCGAGGAGGAGGUUAAUCGAGUUUUCGGCGGAUGCCUUCAAA [A33G U47A A53G C70U], AUAAAAGCGCCAGAAAUACAGAAAUGUAGUUGACGUGGAGGAGGUUUAUCGAAUUUUCGGCGGAUGCGUCCAAA [C16A A36U C68G] is higher in “self-cleavage kobs at 2500 uM GlcN6P” value: less than 1e-05 s⁻¹ for the first, 0.000692 ± 0.0002 s⁻¹ for the second.

Going from AUAAAAGCGCCGGAUCUACAGAAAUGUAGUUGACGAGGAGGAGGUUUAUCGAACUUUCGGCGGAUGGCUCCAAA [A12G A15U U54C C67G] to AUAAAAGCGCUGGAAUUACAGAAAUGUAGUUGACGAGGAAGAGGUUUAUCGAAUUUUCGGCGGAUGCUUCCAAA [C11U A12G C16U G40A C68U], the “self-cleavage kobs at 2500 uM GlcN6P” value falls from 5.41e-05 ± 1.9e-05 s⁻¹ to less than 1e-05 s⁻¹.

Compared with AUAAAAGCGCCAGAACUACAGAAAUGUAGUUGACGAGGAGGAGAUUUAUCGAUCUUUCGGCGGAUGCCUCCAAA [G44A A53U U54C], AUAAAAGCGCUAGAACUACAGAAAUGUAGUUGACGAGGAGGAGGUUUAUCGAAUUUUCGUCGGAUGCAUCCAAA [C11U G60U C68A] is lower in “self-cleavage kobs at 2500 uM GlcN6P” value: 0.000119 ± 4.8e-05 s⁻¹ for the first, less than 1e-05 s⁻¹ for the second.

AUAAAAGUGCCCGAUCUACAGAAAUGUAGAUGACGAGGAGGAGGUUUAUCGAAGGUUCGGCGGAUGCCUUCAAA [C8U A12C A15U U30A U54G U55G C70U] and AUAAAAGCGCCAGAAUUACAGAAAUGUAAUUGACGAGGAGUAGGUUUAUCUAAUUUUCGGCGGAUGCCUCCAAA [C16U G29A G41U G51U] cannot be ordered by “self-cleavage kobs at 2500 uM GlcN6P” value: less than 1e-05 s⁻¹ for the first, less than 1e-05 s⁻¹ for the second.

Going from AUAAAAGCGCCAAAACUACAGAAAUGUAGGUGACGAGGAGGAGGUUUAUCGAUUUUUCGGCGGAUGCCUCCAAA [G13A U30G A53U] to AUAAAAGCUCCAGAACUACAGAAAUGUAUUUGACUAGCAGGAGGGUUAACGAAUUUUCGGCGGAUGCCUCCAAA [G9U G29U G35U G38C U45G U49A], the “self-cleavage kobs at 2500 uM GlcN6P” value falls from 0.000141 ± 4.4e-05 s⁻¹ to less than 1e-05 s⁻¹.

AUAAAAGCGCCAGAACUACAGAAAUGUAGUAGACGAGGAGUAGGUUUAUCGAAUUUUCUGCGGAUGCCUCCAAA [U31A G41U G59U] and AUAAAACCGCCAGAACUACAGAAAUGUAGUUGACGAGGAGGAGGUUUAUCUAAUUUUCAGCGGAUGCCUCCAAA [G7C G51U G59A] cannot be ordered by “self-cleavage kobs at 2500 uM GlcN6P” value: less than 1e-05 s⁻¹ for the first, less than 1e-05 s⁻¹ for the second.

AUAAAAGCGCCAGAACUACAGAAAUGUAGUUGACGACGAGGAGGUUUAUCGAAUUUUCGGCUGAUGCCUCGAAA [G37C G62U C71G] and AUAAAAUCGCCAGAACUACAGAAAUGUAGUUCACGAGGAGGAGGUUUAUCGAAUUUUCGGCGGAUGCAUCCAAA [G7U G32C C68A] cannot be ordered by “self-cleavage kobs at 2500 uM GlcN6P” value: less than 1e-05 s⁻¹ for the first, less than 1e-05 s⁻¹ for the second.

AUAAAAGCGCCAGAACUACAGAAAUGUAGCUGACGAGGAGGAGGUUAAUCGAAUUUCCGGCGGAUGCCUCCAAA [U30C U47A U57C] and AUAAAAGCGCUAGAACUACAGAAAUGUAGUUGACCAGGAGGAGGUUUAUCGAAAUUUCGUCGGAUGCCUCAAAA [C11U G35C U54A G60U C71A] cannot be ordered by “self-cleavage kobs at 2500 uM GlcN6P” value: less than 1e-05 s⁻¹ for the first, less than 1e-05 s⁻¹ for the second.

AUAAAAGCGCCAGAACUACAGAAAUGUAGUUGACGAUGAGUAGGUUGAUCGAAUUUUCGGCGUAUGCCUCCAAA [G37U G41U U47G G63U] and AUAAAAGCGCCAGAACUACAGAAAUGUAGUUGACGAGGAGGUGUUUUAUCGAAUUUUCGGCGGACGCCUCCAAA [A42U G44U U65C] cannot be ordered by “self-cleavage kobs at 2500 uM GlcN6P” value: less than 1e-05 s⁻¹ for the first, less than 1e-05 s⁻¹ for the second.

AUAAAAGCGCCAGAACUACAGAAAUGUAGUUGACGAGGAGGAGGUCUAUCGAAUUUUCGACGGAUGCCUGCAAA [U46C G60A C70G] and AUAAAAGCGCCAGUACUACAGAAAUGUAUUUCACGAGGAGGAGGUUUAUCGAAUUCUCGGCGGAUGCAUUCAAA [A14U G29U G32C U56C C68A C70U] cannot be ordered by “self-cleavage kobs at 2500 uM GlcN6P” value: less than 1e-05 s⁻¹ for the first, less than 1e-05 s⁻¹ for the second.

Going from AUAAAAGCGCCAGAACUACAGAAAUGUAUUUGACGAGGAGGAGGUUUAACGAAUUUUCGGCGGAUGCCUGCAAA [G29U U49A C70G] to AUAAAAGCGCCAGAACUACAGAAAUGUAGUUGACGAGGAGGAGGAUUUUCGAAUUUUCGGCGGAUGCCUCCAAA [U45A A48U], the “self-cleavage kobs at 2500 uM GlcN6P” value rises from 5.3e-05 ± 1.9e-05 s⁻¹ to 0.0011 ± 0.00038 s⁻¹ (21-fold).

AUAAAAGGGCCAGAACUACAGAAAUGUAUUUGACGAGGAGGAGGUUUAUCGAAUUUUCGGCGGAUGCCGCCAAA [C8G G29U U69G] and AUAAAAUCGCCAGAACUACAGAAAUGUAGUUGACGAGGAGGAGGUUUAUCGAAUUGUUGGCGGAUGCCUCCAAA [G7U U56G C58U] cannot be ordered by “self-cleavage kobs at 2500 uM GlcN6P” value: less than 1e-05 s⁻¹ for the first, less than 1e-05 s⁻¹ for the second.

AUAAAAGCGCCAGAACUACAGAAAUGUAGUUGCCGAGGAGGAGGUUUAUCGAACUUUCGGCGGAUGGGUUCAAA [A33C U54C C67G C68G C70U] and AUAAAACCGCCAGCACUACAGAAAUGUAGUUGACGAGGAGGAGGUUUAUCGAAUUUUCGCCGGAUGCCUCCAAA [G7C A14C G60C] cannot be ordered by “self-cleavage kobs at 2500 uM GlcN6P” value: less than 1e-05 s⁻¹ for the first, less than 1e-05 s⁻¹ for the second.

First: AUAAAAGCGCCAGAACUACAGAAAUGUAGUUGACGAGGAGGGGGUUUAUCGAAUUUUCGGCGGAAUCCUCCAAA [A42G U65A G66U]
Second: AUAAAAGCGCCAGAACUACAGAAAUGUAGUUGACGAGGAAGAGGUUUAUCGAAUUUUCGGCUGAUGCCUGCAAA [G40A G62U C70G]
The “self-cleavage kobs at 2500 uM GlcN6P” value of the first is higher: 7.25e-05 ± 2.4e-05 s⁻¹ for the first, less than 1e-05 s⁻¹ for the second.

Variants of: B1
Experiment: self-cleavage kobs at 10000 uM GlcN6P; higher = faster cleavage; RNA array
Details: with glucosamine-6-phosphate
In short: as §1

AUAAAAGCGCCAGAAGUACAGAAAUGUAGUUGACGAGGAGGAGGUUUAUCGAAUUUUCGGCGGAAGCCUCUAAA [C16G U65A C71U] and AUAAAAGCGCCAGAACUACAGAAAUGUAGUUGACGAGGAGGAGAUUUAUCGAUCUUUCGGCGGAUGCCUCCAAA [G44A A53U U54C] are within error of each other in “self-cleavage kobs at 10000 uM GlcN6P” value: 0.000346 ± 8.7e-05 s⁻¹ for the first, 0.000211 ± 6.8e-05 s⁻¹ for the second.

AUAAAAGCGCCAGAAUUACAGAAAUGUAAUUGACGAGGAGUAGGUUUAUCUAAUUUUCGGCGGAUGCCUCCAAA [C16U G29A G41U G51U] and AUAAAAUCGCCAGAACUACAGAAAUGUAGUUGACGAGGAGGAGGUUUAUCGAAUUGUUGGCGGAUGCCUCCAAA [G7U U56G C58U] cannot be ordered by “self-cleavage kobs at 10000 uM GlcN6P” value: less than 1e-05 s⁻¹ for the first, less than 1e-05 s⁻¹ for the second.

Reference: the supplement of paper PMC7125110
